Earlier results in PMC11409674, “Raffinocyclicin is a novel plasmid-encoded circular bacteriocin produced by Lactococcus raffinolactis with broad-spectrum activity against many gram-positive food pathogens” (Applied and environmental microbiology, 2024).

Test system: proteases
Set-up: method as in 4 sources, ref 33 = [33]; PMID 21948835; doi:10.1128/AEM.06348-11; 33 Masuda Y Ono H Kitagawa H Ito H Mu F Sawa N Zendo T Sonomoto K Identification and characterization of leucocyclicin Q, a novel cyclic bacteriocin produced by Leuconostoc mesenteroides TK41401 Appl ||| ref 27 = [27]; PMID 21057028; doi:10.1128/AEM.01173-10; 27 Borrero J Brede DA Skaugen M Diep DB Herranz C Nes IF Cintas LM Hernández PE Characterization of garvicin ML, a novel circular bacteriocin produced by Lactococcus garvieae DCC43, isolated from mall ||| ref 30 = [30]; PMID 29177092; doi:10.1099/mgen.0.000134; 30 van Heel AJ Montalban-Lopez M Oliveau Q Kuipers OP Genome-guided identification of novel head-to-tail cyclized antimicrobial peptides, exemplified by the discovery of pumilarin Microb Genom 2017 3 ||| ref 29 = [29]; PMID 18552180; doi:10.1128/AEM.00817-08; 29 Martin-Visscher LA van Belkum MJ Garneau-Tsodikova S Whittal RM Zheng J McMullen LM Vederas JC Isolation and characterization of carnocyclin A, a novel circular bacteriocin produced by Carnobacteri
Conditions: cited from earlier work

Substance | sensitivity to proteolytic activity
garvicin ML | resistant
lactocyclicin Q | resistant
leucocyclicin Q | resistant
